Here are results for six molecules from patent US20180216091A1.

The labels stand for the following.
B1: N-terminally truncated Streptococcus pyogenes sortase A (protein)
chain: MRGSHHHHHHGSVLQAQMAAQQLPVIGGIAIPELGINLPIFKGLGNTELIYGAGTMKEEQVMGGENNYSLASHHIFGITGSSQMLFSPLERAQNGMSIYLTDKEKIYEYIIKDVFTVAPERVDVIDDTAGLKEVTLVTCTDIEATERIIVKGELKTEYDFDKAPADVLKAFNHSYNQVST
B2: Listeria monocytogenes Sortase A variant C (enzyme)
chain: ANYDKDAVVGSIAVPSVDVNLLVFKGTNTANLLAGATTMRSDQVMGKGNYPLAGHHMRDESMLFGPIMKVKKGDKIYLTDLENLYEYTVTETKTIDETEVSVIDDTKDARITLITCDKPTETTKRFVAVGELEKTEKLTKELENKYFPSKMRGSHHHHHHGS
B3: Listeria monocytogenes Sortase A variant B (enzyme)
chain: SVIKGAANYDKDAVVGSIAVPSVDVNLLVFKGTNTANLLAGATTMRSDQVMGKGNYPLAGHHMRDESMLFGPIMKVKKGDKIYLTDLENLYEYTVTETKTIDETEVSVIDDTKDARITLITCDKPTETTKRFVAVGELEKTEKLTKELENKYFPSKMRGSHHHHHHGS
B4: Listeria monocytogenes Sortase A variant E (enzyme)
chain: GSIAVPSVDVNLLVFKGTNTANLLAGATTMRSDQVMGKGNYPLAGHHMRDESMLFGPIMKVKKGDKIYLTDLENLYEYTVTETKTIDETEVSVIDDTKDARITLITCDKPTETTKRFVAVGELEKTEKLTKELENKYFPSKMRGSHHHHHHGS
B5: Listeria monocytogenes Sortase A variant A (enzyme)
chain: EKDATFDFESVQLPSMTSVIKGAANYDKDAVVGSIAVPSVDVNLLVFKGTNTANLLAGATTMRSDQVMGKGNYPLAGHHMRDESMLFGPIMKVKKGDKIYLTDLENLYEYTVTETKTIDETEVSVIDDTKDARITLITCDKPTETTKRFVAVGELEKTEKLTKELENKYFPSKMRGSHHHHHHGS
B6: Listeria monocytogenes Sortase A variant D (enzyme)
chain: ANYDKDAVVGSIAVPSVDVNLLVFKGTNTANLLAGATTMRSDQVMGKGNYPLAGHHMRDESMLFGPIMKVKKGDKIYLTDLENLYEYTVTETKTIDETEVSVIDDTKDARITLITCDKPTETTKRFVAVGELEKTEKMRGSHHHHHHGS

The first data set addresses glucose dehydrogenase harboring a LPKTA motive.
Assay: not given
With B1, the “activity with different LPKTA concentrations” value was “a substrate inhibition effect for St.py. SrtA at concentrations higher than 300 µM”. For the molecule B2, the “activity with different LPKTA concentrations” value is recorded as “The graphs show the higher activity of Listeria monocytogenes Sortase A variant C”.

The target in another data set is glucose dehydrogenase containing the sortase-motif LPXTG. The data set is described as follows: cell-based or functional assay.
Consider B3, for which the maximum dE/min worked out at 0.026 dE/min. B4 yielded a maximum dE/min of 0.019 dE/min.

In turn, B5 gave a maximum dE/min of 0.037 dE/min. The same measure, in the same setting: the figure for B6 is 0.044 dE/min; for B2 it is 0.113 dE/min.
